From patent JP2014141434A (dated 2014)

Experiments:
[1] = target: T1, ラットROBO4 (pCI−raROBO4導入細胞) (rat, UniProt Q80W87 38-949 at identity 0.93)); assay: flow cytometry, transfected HEK293 cells
T1 construct: also called rat ROBO4; raROBO4
T1 chain: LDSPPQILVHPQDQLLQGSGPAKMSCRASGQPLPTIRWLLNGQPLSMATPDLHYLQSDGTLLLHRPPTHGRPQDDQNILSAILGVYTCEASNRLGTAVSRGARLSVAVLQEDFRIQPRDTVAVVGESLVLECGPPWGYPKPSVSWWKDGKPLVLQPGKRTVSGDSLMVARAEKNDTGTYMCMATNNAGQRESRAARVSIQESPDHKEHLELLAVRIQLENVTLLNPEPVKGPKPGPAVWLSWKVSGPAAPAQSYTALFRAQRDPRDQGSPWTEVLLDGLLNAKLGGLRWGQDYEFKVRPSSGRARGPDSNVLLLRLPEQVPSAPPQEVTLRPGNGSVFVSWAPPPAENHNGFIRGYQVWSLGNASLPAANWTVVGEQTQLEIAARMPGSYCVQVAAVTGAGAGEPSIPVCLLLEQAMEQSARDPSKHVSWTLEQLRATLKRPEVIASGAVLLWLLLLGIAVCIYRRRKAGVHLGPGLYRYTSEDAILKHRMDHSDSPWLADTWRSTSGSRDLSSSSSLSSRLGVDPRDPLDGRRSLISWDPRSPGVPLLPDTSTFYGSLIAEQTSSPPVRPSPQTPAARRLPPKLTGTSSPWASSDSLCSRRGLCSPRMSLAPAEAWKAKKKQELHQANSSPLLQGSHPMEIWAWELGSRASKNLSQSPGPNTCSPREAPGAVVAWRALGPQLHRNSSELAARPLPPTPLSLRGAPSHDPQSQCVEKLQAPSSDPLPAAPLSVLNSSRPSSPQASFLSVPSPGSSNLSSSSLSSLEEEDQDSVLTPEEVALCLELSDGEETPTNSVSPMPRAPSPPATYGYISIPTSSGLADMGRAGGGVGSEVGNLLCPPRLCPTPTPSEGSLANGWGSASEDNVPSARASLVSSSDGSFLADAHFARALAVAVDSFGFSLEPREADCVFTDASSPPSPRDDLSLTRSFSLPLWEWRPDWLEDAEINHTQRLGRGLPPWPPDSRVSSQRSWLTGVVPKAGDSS

ヒトROBO2 = target: T2, ヒトROBO2 (human); assay: flow cytometry, transfected HEK293 cells
T2 construct: also called hROBO2; pCI−hROBO2
T2 chain: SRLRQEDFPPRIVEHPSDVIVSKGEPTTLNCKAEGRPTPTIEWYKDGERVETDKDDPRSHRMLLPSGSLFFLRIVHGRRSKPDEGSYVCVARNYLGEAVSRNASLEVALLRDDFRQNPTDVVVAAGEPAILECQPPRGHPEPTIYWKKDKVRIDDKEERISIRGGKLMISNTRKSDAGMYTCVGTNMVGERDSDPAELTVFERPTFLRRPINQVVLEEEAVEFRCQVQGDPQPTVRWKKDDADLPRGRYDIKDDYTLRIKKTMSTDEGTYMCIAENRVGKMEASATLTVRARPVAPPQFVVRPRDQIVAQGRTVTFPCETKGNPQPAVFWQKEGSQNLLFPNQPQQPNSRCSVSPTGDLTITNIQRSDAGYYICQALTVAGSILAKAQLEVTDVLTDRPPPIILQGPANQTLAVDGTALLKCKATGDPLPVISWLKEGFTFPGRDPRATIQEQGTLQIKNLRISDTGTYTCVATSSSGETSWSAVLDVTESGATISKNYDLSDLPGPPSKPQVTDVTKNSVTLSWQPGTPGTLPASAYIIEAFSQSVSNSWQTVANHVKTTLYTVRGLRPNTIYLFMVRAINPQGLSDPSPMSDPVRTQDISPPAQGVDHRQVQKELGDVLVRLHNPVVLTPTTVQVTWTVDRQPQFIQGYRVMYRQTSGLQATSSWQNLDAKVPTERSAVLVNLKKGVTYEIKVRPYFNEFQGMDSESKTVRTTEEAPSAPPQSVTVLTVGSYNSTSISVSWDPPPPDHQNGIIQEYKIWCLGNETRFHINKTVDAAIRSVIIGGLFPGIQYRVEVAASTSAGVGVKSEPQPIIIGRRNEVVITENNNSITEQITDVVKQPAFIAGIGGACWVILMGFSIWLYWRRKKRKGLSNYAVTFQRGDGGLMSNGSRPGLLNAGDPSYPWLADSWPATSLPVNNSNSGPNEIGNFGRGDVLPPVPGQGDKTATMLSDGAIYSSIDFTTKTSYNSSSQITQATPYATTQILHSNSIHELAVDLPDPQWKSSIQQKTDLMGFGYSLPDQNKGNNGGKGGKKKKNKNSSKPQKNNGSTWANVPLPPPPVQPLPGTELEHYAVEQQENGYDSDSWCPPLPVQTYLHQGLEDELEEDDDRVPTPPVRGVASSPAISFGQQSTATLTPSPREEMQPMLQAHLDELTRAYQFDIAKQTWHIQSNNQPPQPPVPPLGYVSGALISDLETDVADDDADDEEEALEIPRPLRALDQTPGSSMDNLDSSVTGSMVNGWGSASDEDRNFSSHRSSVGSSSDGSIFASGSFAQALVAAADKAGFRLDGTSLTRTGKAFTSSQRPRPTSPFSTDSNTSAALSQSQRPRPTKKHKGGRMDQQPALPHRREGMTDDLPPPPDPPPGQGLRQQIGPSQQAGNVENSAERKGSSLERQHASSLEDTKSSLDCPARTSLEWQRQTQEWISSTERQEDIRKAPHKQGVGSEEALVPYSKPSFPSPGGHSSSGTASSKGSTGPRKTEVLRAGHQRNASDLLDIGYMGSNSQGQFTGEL

B1: ヒト化MAb1抗体 H−2143 (antibody, human IgG2, kappa, V domains shown)
VH: EVQLVESGGGLVQPGGSLRLSCAASGFTFSTYAMSWVRQAPGKRLEWVATISQGGTYTYYPDSVKGRFTISRDNAKNTLYLQMNSLRAEDTAVYYCARLIYYDYLDYWGQGTLVTVSS
VL: DIVMTQSPLSLPVTLGEPASISCRSSQSLENENKNLYLNWYLQKPGQSPQLLIYRVSNRFSGVPDRFSGSGSGTDFTLKISRVEAEDVGVYYCLQVTHVPWTFGPGTKVDIKR
notes: Humanised IgG2 / kappa; also called H-2143; hMAb1-H4 / hMAb1-L2
**Q.** Does B1 bind [1]?
**A.** no binding (tested: 10 μg/mL (method of 4)-3-2))

**Q.** Does B1 bind (ヒトROBO2)?
**A.** no binding (tested: 10 μg/mL (method of 4)-4-2))

B2: ヒト化MAb1抗体 H−1143 (antibody, human IgG2, kappa, V domains shown)
VH: EVQLVESGGGLVQPGGSLRLSCAASGFTFSTYAMSWVRQAPGKGLEWVATISQGGTYTYYPDSVKGRFTISRDNAKNTLYLQMNSLRAEDTAVYYCARLIYYDYLDYWGQGTLVTVSS
VL: DIVMTQSPLSLPVTLGEPASISCRSSQSLENENKNLYLNWYLQKPGQSPQLLIYRVSNRFSGVPDRFSGSGSGTDFTLKISRVEAEDVGVYYCLQVTHVPWTFGPGTKVDIKR
notes: Humanised IgG2 / kappa; also called H-1143; hMAb1-H2 / hMAb1-L2
**Q.** Does B2 bind [1]?
**A.** no binding (tested: 10 μg/mL (method of 4)-3-2))

**Q.** Does B2 bind (ヒトROBO2)?
**A.** no binding (tested: 10 μg/mL (method of 4)-4-2))

B3: ヒト化MAb1抗体 H−2140 (antibody, human IgG2, kappa, V domains shown)
VH: EVQLVESGGGLVQPGGSLRLSCAASGFTFSTYAMSWVRQAPGKRLEWVATISQGGTYTYYPDSVKGRFTISRDNAKNTLYLQMNSLRAEDTAVYYCARLIYYDYLDYWGQGTLVTVSS
VL: DIVMTQSPLSLPVTLGEPASISCRSSQSLENSNGNTYLNWYLQKPGQSPQLLIYRVSNRFSGVPDRFSGSGSGTDFTLKISRVEAEDVGVYYCLQVTHVPWTFGPGTKVDIKR
notes: Humanised IgG2 / kappa; also called H-2140; hMAb1-H4 / hMAb1-L1
**Q.** Does B3 bind [1]?
**A.** no binding (tested: 10 μg/mL (method of 4)-3-2))

**Q.** Does B3 bind (ヒトROBO2)?
**A.** no binding (tested: 10 μg/mL (method of 4)-4-2))

B4: 抗ROBO4マウスモノクローナル抗体 MAb1 (antibody, V domains shown)
VH: EVQLVESGGGLVKPGGSLKLSCAASGFTFSTYAMSWVRQTPEKRLEWVATISNGGTYTYYPDSVKGRFTISRDNAENTLYLQMSSLRSEDTAMYFCARLIYYDYLDYWGHGTTLTVSS
VL: DAVMTQTPLSLPVSLGDQASISCRSSQSLENSNGNTYLNWYFQKPGQSPQLLIYRVSNRFSGVLDRFSGSGSGTDFTLKISRVEAEDFGVYFCLQVTHVPWTFGGGTKLEIKR
notes: Mouse IgG1 (gamma 1) / kappa from a hybridoma; The constant regions are not in the listing; also called MAb1
**Q.** Does B4 bind [1]?
**A.** no binding (tested: 10 μg/mL)

**Q.** Does B4 bind (ヒトROBO2)?
**A.** no binding (tested: 10 μg/mL)
